# Source: article PMC10176505, “PYK-SubstitutionOME: an integrated database containing allosteric coupling, ligand affinity and mutational, structural, pathological, bioinformatic and computational information about pyruvate kinase isozymes” (Database: The Journal of Biological Databases and Curation, 2023)
# System: T1, C=C(OP(=O)(O)O)C(=O)O
# T1 construct: full-length liver isozyme; homotetramer; purified or partially purified
# Assay: enzyme kinetics, PEP concentration at half Vmax
# Format: biochemical, Homo sapiens
# Settings: no allosteric effector; apparent affinity (not an association constant)
# Source text: enzyme kinetics, PEP concentration at half Vmax on hLPYK | Ka-PEP (the kinetic equivalent to Kia-PEP), the apparent affinity for PEP
# Chain of hLPYK (Homo sapiens) (chain, as listed by the source): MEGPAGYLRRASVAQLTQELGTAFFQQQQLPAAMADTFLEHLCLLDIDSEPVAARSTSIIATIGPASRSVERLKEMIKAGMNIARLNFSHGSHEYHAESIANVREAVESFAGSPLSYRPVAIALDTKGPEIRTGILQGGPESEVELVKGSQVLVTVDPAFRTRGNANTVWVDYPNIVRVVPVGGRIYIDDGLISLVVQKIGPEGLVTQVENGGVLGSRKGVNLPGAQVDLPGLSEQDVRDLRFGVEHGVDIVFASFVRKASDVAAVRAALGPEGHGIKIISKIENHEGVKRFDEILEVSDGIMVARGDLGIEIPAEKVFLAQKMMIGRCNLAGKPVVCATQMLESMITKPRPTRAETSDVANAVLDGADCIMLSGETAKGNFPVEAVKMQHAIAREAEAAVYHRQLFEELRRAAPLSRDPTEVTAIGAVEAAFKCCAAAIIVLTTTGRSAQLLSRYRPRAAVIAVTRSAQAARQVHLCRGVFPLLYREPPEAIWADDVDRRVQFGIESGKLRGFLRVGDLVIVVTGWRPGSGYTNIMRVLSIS
substance,measurement,value
hLPYK (Homo sapiens),K0.5,0.22 mM
